The target of experiment [1] is T1, Human Galectin-3 protein (Acro Biosystems, GA3-H5129) (human, UniProt P17931 2-250).
T1 construct: bought; also called Gal3-ECD-His; Gal3-His; not shown: linker-spaced 6-histidine tag
Description: ELISA, INSR binding to coated Gal3 with 3 ug/mL antibody.

Experiment [2] has as its target T2, human Galectin-3 (Gal3) (human, UniProt P17931 2-250, limits assumed).
T2 construct: also called hGal3; hGAL3
Briefly: SPR Biacore T200, antibody captured, Gal3 analyte, 1:1 fit.

For experiment [3], the target named is T3, His-enterokinase cleavage site (EK)-cynoGal3 (TrueBinding in-house antigen) (cynomolgus, UniProt A0A7N9CYL1 6-247).
T3 construct: also called His-EK-cynoGal3; cynomolgus Gal3; not shown: His tag and enterokinase cleavage site
T3 sequence (A0A7N9CYL1 entry or part of it): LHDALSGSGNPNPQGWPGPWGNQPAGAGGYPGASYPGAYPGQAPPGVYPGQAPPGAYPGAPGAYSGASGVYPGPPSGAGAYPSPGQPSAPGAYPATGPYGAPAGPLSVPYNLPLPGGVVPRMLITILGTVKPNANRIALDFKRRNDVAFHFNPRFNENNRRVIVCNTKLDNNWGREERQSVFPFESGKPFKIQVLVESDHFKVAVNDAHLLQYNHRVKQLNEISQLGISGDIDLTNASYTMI
Description: SPR Biacore T200, protocol of Example 9. Background: Surface plasmon resonance follows binding to a sensor surface in real time, without labels.

For experiment [4], the target named is T2, human Galectin-3 (Gal3). Description: SPR Carterra LSA, antibody captured on Protein A/G, Gal3 analyte.
Experiment [5] addresses T4, mouse Gal3 (mouse, UniProt P16110 2-264, limits assumed). The experiment is described as above.
Experiment [6] concerns the target T2, human Galectin-3 (Gal3). Description: SPR Carterra LSA, protocol of Example 9.
Experiment [7] deals with T3, His-enterokinase cleavage site …. Description: SPR Biacore T200, antibody captured, 1:1 fit.
The next experiment addresses T5, His-EK-ratGal3 (rat, UniProt P08699 2-262).
T5 construct: not shown: His tag and enterokinase cleavage site
T5 sequence (looked up): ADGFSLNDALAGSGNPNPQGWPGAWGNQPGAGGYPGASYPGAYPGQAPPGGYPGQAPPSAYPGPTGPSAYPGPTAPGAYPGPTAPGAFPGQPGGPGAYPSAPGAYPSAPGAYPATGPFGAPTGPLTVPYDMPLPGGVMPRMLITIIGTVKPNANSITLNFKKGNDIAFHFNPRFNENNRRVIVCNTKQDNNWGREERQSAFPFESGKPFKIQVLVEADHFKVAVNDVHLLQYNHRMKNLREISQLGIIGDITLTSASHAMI
Briefly: SPR Biacore T200, antibody captured by anti-human Fc, 1:1 fit.

In experiment [8] the target is T4, mouse Gal3. Description: SPR Carterra LSA, protocol of Example 9.
Experiment [9] deals with T1, Human Galectin-3 protein (Acro …). Description: SPR sandwich binning, Carterra LSA.
The next experiment concerns the target T6, Peptide 6 of Gal3 (human).
T6 peptide: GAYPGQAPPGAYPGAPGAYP
Description: peptide ELISA, antibody as hIgG4(S228P) at 5 ug/mL. (In general: ELISA stands for enzyme-linked immunosorbent assay.)

The next experiment addresses T7, Peptide 5 of Gal3 (human).
T7 peptide: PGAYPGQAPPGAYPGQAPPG
Description: peptide ELISA, antibody as hIgG4(S228P) at 5 ug/mL.

Experiment [10] concerns the target T2, human Galectin-3 (Gal3). Briefly: HDX-MS.

Where only a bound is given, the exact number is not on record here.

These results are taken from patent publication US20220411514A1 (TRUEBINDING, published 2022).

T2 sequence (P17931 2-250 limits assumed): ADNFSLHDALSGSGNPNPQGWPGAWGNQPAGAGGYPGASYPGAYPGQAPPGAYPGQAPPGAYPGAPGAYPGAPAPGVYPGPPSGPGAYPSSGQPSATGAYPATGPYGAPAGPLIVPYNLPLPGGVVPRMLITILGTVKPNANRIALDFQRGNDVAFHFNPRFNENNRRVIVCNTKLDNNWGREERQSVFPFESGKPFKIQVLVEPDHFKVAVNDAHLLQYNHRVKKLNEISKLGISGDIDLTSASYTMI
T1 sequence (P17931 2-250): as the sequence (P17931 2-250 limits assumed) above
T4 sequence (P16110 2-264 limits assumed): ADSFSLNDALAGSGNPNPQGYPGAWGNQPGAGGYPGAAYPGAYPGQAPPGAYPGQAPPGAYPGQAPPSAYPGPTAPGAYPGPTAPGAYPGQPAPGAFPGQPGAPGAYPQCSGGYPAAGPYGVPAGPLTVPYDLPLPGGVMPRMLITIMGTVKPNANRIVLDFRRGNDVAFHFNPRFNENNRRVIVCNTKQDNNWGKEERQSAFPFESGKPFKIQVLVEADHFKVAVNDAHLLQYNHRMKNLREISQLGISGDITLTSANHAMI

B1: 15G7.2A7 (antibody, V domains shown)
VH: EVQLQQSGPELVKPGASVKISCKASGYTFTDYYMNWVKQSHGKSLEWIGDINPNNGGTNYNQKFKGKATLTVDKSSSTAYMELRSLTSEDSAVYYCTSGYGFPYWGQGTLVTVSA
VL: DIQMNQSPSSLSASLGDTISITCRASQNINIWLSWYQQKPGNIPQLLIYKASNLHTGVPSRFSGSGSGTDFTLTISSLQPEDIATYYCLQGQSYPLTFGAGTKLVMKR
Broadly, the Kd is a measure of binding affinity in units of concentration. Low readings indicate a tighter complex, high ones a looser complex. Take B1: in experiment [1], the “inhibition of Gal3-INSR binding, %” value is over 99%. The Kd with human Galectin-3 (Gal3) [2] is 27.8 nM.

B2: 12G5.D7 (antibody, V domains shown)
VH: QVQLKQSGAELVRPGASVKLSCKASGYTFTDYYINWVKQRPGQGLEWIARIYPGTGNTDYNEKFKGRATLTAEKSSSTAYMQLSSLTSEDSAVYFCARFAYYYGSGGYFDYWGHGTTLTVSS
VL: DILMTQSPSSMSVSLGDTVSITCHASQGINSNMGWLQQKPGKSFKGLIYHATNLEDGVPSRFSGSGSGADYSLTISSLESEDFADYYCVQYAQFPPTFGSGTKLEIK
Turning to B2, in experiment [1], the “inhibition of Gal3-INSR binding, %” value is at most 30%. Further, in the experiment with human Galectin-3 (Gal3) [2], the affinity, expressed as Kd, was 1.9 nM.

B3: 13G4.2F8 (antibody, V domains shown)
VH: QVQLQQPGAELVKPGASVKLSCKASGYTFTSYWMHWVKQRPGQGLEWIGMIHPNSGSTDYNEKFKNKATLNVDKSSSTAYIQLSSLTSEDSAVYYCTRWGIYYYARDYWGQGTTLTVSS
VL: DIVMTQSQKFMSTSVGERVSITCKASQNVGTNVAWYQQKAGQSLELLIYGASNRHTGVPDRFTGSGSGTDFTLTITNVQSEDMTNYFCEQYSNFPLTFGAGTKLELKR
Consider B3, for which the “inhibition of Gal3-INSR binding, %” value in experiment [1] is at most 30%. The molecule further displayed a Kd with human Galectin-3 (Gal3) [2] of 18.4 nM.

B4: 19B5.2E6 (antibody, V domains shown)
VH: QIQLVQSGPELKKPGETVKISCKASGYTFTTYAMSWVKQAPGKGLKWMGWINTYSGVPTYADDLKGRFAFSLETSASTAYLQINNLKNEDTATYFCARGPYAMDYWGQGTSVTVSS
VL: DIQMTQTTSSLSASLGDRVTISCSASQGINNYLNWYQQKPDGTVKLLIYYASSLHSGVPSRFSGSGSGTDYSLTISNLEPEDIATYYCQQYSQVPYTFGSGTKLEIKR
For B4, the “Gal3-INSR binding left, % of unblocked sample” value (“Gal3-INSR binding left, %” for short) in [1] is under 5%.

B5: 23H9.2E4 (antibody, V domains shown)
VH: QIQLVQSGPELKKPGETVKISCKASGYTFTTYAMSWVKQAPGKGLKWMGWINTYSGVPTYADDLKGRFAFSLETSASTAYLQINNLKNEDTATYFCARGPYAMDYWGQGTSVTVSS
VL: DIQMTQTTSSLSASLGDRVTISCSASQGINNYLNWYQQKPDGTVKLLIYYASSLHSGVPSRFSGSGSGTDYSLTISNLEPEDIATYYCQQYSQVPYTFGSGTKLEIK
In the case of B5, in experiment [1], the “Gal3-INSR binding left, %” value is under 5%.

B6: 3B11.2G2 (antibody, V domains shown)
VH: QIQLVQSGPELKKPGETVKISCKTSGYKFKTYVMSWVKQAPGKALKWMGWINTYSGVPTYADDFKGRFAFSLETSASTAYLEIINLKNEDTATYFCARDGNYGDPMDYWGQGTSVTVSS
VL: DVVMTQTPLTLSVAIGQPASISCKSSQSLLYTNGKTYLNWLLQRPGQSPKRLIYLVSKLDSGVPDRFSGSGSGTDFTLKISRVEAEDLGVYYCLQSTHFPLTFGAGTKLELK
For the molecule B6, the “Gal3-INSR binding left, %” value in experiment [1] was under 5%.

B7: TB006 (antibody, V domains shown)
VH: QVQLVQSGAEVKKPGASVKVSCKASGYSFTNYYMHWVRQAPGQRLEWMGWIYPGSGNTNYNEKFQGRVTITADTSASTAYMELSSLRSEDTAVYYCSTAPGGFDVWGQGTTVTVSS
VL: DIVMTQTPLSLSVTPGQPASISCKSSKSLLHSDGITYLYWYLQKPGQSPQLLIYRMSNLASGVPDRFSGSGSGTDFTLKISRVEAEDVGVYYCAQMLEFPLTFGQGTKLEIKR
On to B7, for which the equilibrium dissociation constant (Kd) was 9.4 nM in [3]; 8.9 nM in the experiment with human Galectin-3 (Gal3) [4]; 40000 nM with mouse Gal3 [5]; 23 nM in the experiment with human Galectin-3 (Gal3) [6]; 5.1 nM in experiment [7].

B8: 24D12.2H9 (antibody, V domains shown)
VH: QVQLKQSGPGLVQPSQSLSITCTVSGFSLTSYGVHWVRQAPGKGLEWLGVIWSGGSTDYNAAFMSRLSISKDNSKSQVFFKMNSLQADDTAIYYCAKSPDGYDVAWFGYWGQGTLVTVSA
VL: DIVMTQSHKFMSTSVGDRVSITCKASQDVRTAVAWYQQKPGQSPKLLIYWASTRHTGVPDRFTGSGSGTDFTLTLSNVQSEDLADYFCQQYSSYPWTFGGGTKLEIKR
As to B8, in experiment [1], the “inhibition of Gal3-INSR binding, %” value is at most 30%. Besides, in the experiment with human Galectin-3 (Gal3) [2], the Kd was found to be 4.13 nM.

B9: TB001 (antibody, V domains shown)
VH: QVQLVQSGSELKKPGASVKVSCKASGYTFTNYGMNWVRQAPGQGLKWMGWINTNTGEPTYVEEFTGRFVFSLETSVSTAYLQISSLKAEDTAVYFCAPYDNFFAYWGQGTTVTVSS
VL: DIVLTQSPLSLPVTPGEPASISCRSSKSLLYKDGKTYLNWFLQKPGQSPQLLIYLMSTHASGVPDRFSGSGSGTDFTLKISRVEAEDVGVYYCQQLVDYPLTFGGGTKLEIKR
In the case of B9, the Kd was 14 nM in the experiment with His-EK-ratGal3; 34 nM in experiment [3]; 3.6 nM in the experiment with human Galectin-3 (Gal3) [4]; 2.3 nM with mouse Gal3 [5]; 9.7 nM with human Galectin-3 (Gal3) [6]; 4.2 nM in the experiment with mouse Gal3 [8]. This molecule also showed a Kd in experiment [7] of 8.9 nM.

B10: F847C.21H6 (antibody, V domains shown)
VH: QIQLVQSGPELKKPGETVKISCKASGYTFTIFGMNWVKQAPGKGLKWMGWVNTYTGEPTYADDFKGRFAFSLETSASTAYLQINNLKNEDTATYFCARGWFAYWGQGTLVTVSA
VL: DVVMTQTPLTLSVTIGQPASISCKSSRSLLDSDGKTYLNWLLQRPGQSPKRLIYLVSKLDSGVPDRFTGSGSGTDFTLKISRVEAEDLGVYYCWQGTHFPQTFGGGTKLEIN
Turning to B10, the binding result (in experiment [9]; with Peptide 6 of Gal3; in the experiment with Peptide 5 of Gal3) was “binds” each time.

B11: 9H2.2H10 (antibody, V domains shown)
VH: QVQLQQPGAELVGPGSSVKLSCKASGYTFTNYWIHWVKQRPLQGLEWIGNIDPSDSETHYNQKFKDKATLTVDKSSSTAYMQLSSLTSEDSAVYYCARHGYYDYWGQGTTLTVSS
VL: DIVMTQSHKFMSTSVGDRVSITCKASQDVSTAVAWYQQKPGQSPKLLIYWASTRHTGVPDRFTGSGSGTDYTLTISSVQAEDLALYYCQQHYTTPLTFGAGTKLELKR
On to B11, for which the “inhibition of Gal3-INSR binding, %” value in [1] is at most 30%. Binding with human Galectin-3 (Gal3) [2] was put at a Kd of 2.53 nM.

B12: Arg 228-Val 292 truncated form of GLUT4 (other)
chain: RYLYIIQNLEGPARKSLKRLTGWADVSGVLAELKDEKRKLERERPLSLLQLLGSRTHRQPLIIAV
For B12, the binding result with human Galectin-3 (Gal3) [10] is “binds”.
